pKd: −log10 of the molar value. Where only a bound is given, the exact number is not on record here.

The first series relates to GST-QKI-5. In words: EMSA. To be noted: EMSA: 20 mM HEPES pH 7.4, 330 mM KCl, 10 mM MgCl2, 0.1 mM EDTA, 0.1 mg/ml heparin, 0.01% IGEPAL CA630, room temperature, 1 h; SELEX: 50 mM Tris-HCl pH 8.0 ….
Regarding QRE-2:wt, the negative-log Kd (pKd) is 6.92.

Consider TGE-wt, for which the pKd was 6.52.

For a further series, the target named is T1, His-SLM-2 (UniProt Q9R226).
T1 sequence: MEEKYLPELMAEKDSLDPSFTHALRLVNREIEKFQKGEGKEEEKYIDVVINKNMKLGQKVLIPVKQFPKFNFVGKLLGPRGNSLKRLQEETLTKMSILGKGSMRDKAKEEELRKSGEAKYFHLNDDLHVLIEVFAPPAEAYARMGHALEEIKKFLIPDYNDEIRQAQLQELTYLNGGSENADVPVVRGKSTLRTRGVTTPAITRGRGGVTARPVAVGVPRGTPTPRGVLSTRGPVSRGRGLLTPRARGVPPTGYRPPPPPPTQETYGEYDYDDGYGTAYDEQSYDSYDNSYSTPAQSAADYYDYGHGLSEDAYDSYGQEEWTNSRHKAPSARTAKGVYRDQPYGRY
Kind of series: EMSA. To be noted: EMSA: 20 mM HEPES pH 7.4, 330 mM KCl, 10 mM MgCl2, 0.1 mM EDTA, 0.1 mg/ml heparin, 0.01% IGEPAL CA630, room temperature, 1 h; SELEX: 50 mM Tris-HCl pH 8.0 ….
In the case of UUUCUUGAGCUUAUGGCUUUUAAUAUGG [SRE-7d5], the pKd is less than 6.00.

Regarding UUUGGAUUUCUUGAGCUUAUGGCUUUU [SRE-7d4], the negative logarithm of the Kd (pKd) is less than 6.00.

As to “AUCGUAAUAAACAAUUAAUUUGGAUUUCUUGAGCUUAUGGCUUUUAAUAUGGG [SRE-7m2]”, the negative logarithm of the Kd (pKd) was 7.84.

On to “GGUUAAUUUGGAUUUCUUGAGCUUAUGGCUUUU [SRE-7d8]”, for which the pKd was less than 6.00.

For UAAUUUGGAUUUCUUGAGCUUAUGGCU [SRE-7d7], the pKd was less than 6.00.

As for “GGUUCUACCCCAAUUUUCACUAUCCUACCCCCAGUUCC [SRE-4m1]”, the pKd is less than 6.00.

Take GGAUUUCUUGAGCUUAUGGCUUUUAAU [SRE-7d6]: the pKd is less than 6.00.

Take “AUCGUGGUGGGCGGUUAAUUUGGAUUUCUUGAGCUUAUGGCUUUUAAUAUGGG [SRE-7wt]”: the negative-log Kd (pKd) is 7.52.

Turning to “GGUUCUAUACCCCCUUUCACUAUCCUAUUAACAGUUCC [SRE-4m4]”, the negative logarithm of the Kd (pKd) is less than 6.00.

Regarding “AUCGUGGUGGGCGGUUAAUUUGGAUUUCUUGAGCUUAUGGCUCGACGCAUGGG [SRE-7m3]”, the pKd was less than 6.00.

Turning to “GGUUCUAUAAAAAUUUUCACUAUCCUAUUAACAGUUCC [SRE-4wt]”, the pKd was 7.79.

As for GGUUAAUUUGGAUUUCUUGAGCUUAUG [SRE-7d3], the pKd is less than 6.00.

For “GGUUCCUUUGGAUUUCUUGAGCUUAUGGCUUUUAAUAUGG [SRE-7d9m2]”, the pKd is 6.40.

“GGUUAAUUUGGAUUUCUUGAGCUUAUGGCUUUUAAUAUGG [SRE-7d9]”: the negative logarithm of the Kd (pKd) was 7.65.

For “GGUUCUAUAAAAAUUUUCACUAUCCUACCCCCAGUUCC [SRE-4m3]”, the pKd was less than 6.00.

As to “AUCUUGUUCUCCGCUUAAUUUGGAUUUCUUGAGCUUAUGGCUUUUAAUAUGGG [SRE-7m1]”, the pKd is 7.34.

For the substance “GGUUCCCCUGGAUUUCUUGAGCUUAUGGCUUUCCCCAUGG [SRE-7d9m1]”, the pKd is less than 6.00.

Turning to AUCGUGGUGGGCGGUUAAUUUGGAUUU [SRE-7d1], the negative logarithm of the Kd (pKd) is less than 6.00.

For GUGGGCGGUUAAUUUGGAUUUCUUGAG [SRE-7d2], the negative logarithm of the Kd (pKd) is less than 6.00.

“GGUUCUACCCCAAUUUUCACUAUCCUAUUAACAGUUCC [SRE-4m2]”: the pKd was less than 6.00.

On to “GGUUAAUCUGGAUUUCUUGAGCUUAUGGCUUUUCCUAUGG [SRE-7d9m3]”, for which the pKd is 6.40.

The test system of a further series is MBP-GLD-1 (C. elegans). In words: EMSA. The following applies: EMSA: 20 mM HEPES pH 7.4, 330 mM KCl, 10 mM MgCl2, 0.1 mM EDTA, 0.1 mg/ml heparin, 0.01% IGEPAL CA630, room temperature, 1 h; SELEX: 50 mM Tris-HCl pH 8.0 …. On the technique in general: In EMSA bound probe runs differently from free probe, usually more slowly.
For the substance TGE-wt, the pKd was 6.98.

Usually pKd stands for the Kd on a negative log10 scale, so that one unit is a factor of ten.

The record behind these values is paper PMC2697983.
